Laboratory results reported in IntAct's records for PubMed 27725184.

B1: STAM-binding protein (Homo sapiens), O95630 (parent)
chain: MSDHGDVSLPPEDRVRALSQLGSAVEVNEDIPPRRYFRSGVEIIRMASIYSEEGNIEHAFILYNKYITLFIEKLPKHRDYKSAVIPEKKDTVKKLKEIAFPKAEELKAELLKRYTKEYTEYNEEKKKEAEELARNMAIQQELEKEKQRVAQQKQQQLEQEQFHAFEEMIRNQELEKERLKIVQEFGKVDPGLGGPLVPDLEKPSLDVFPTLTVSSIQPSDCHTTVRPAKPPVVDRSLKPGALSNSESIPTIDGLRHVVVPGRLCPQFLQLASANTARGVETCGILCGKLMRNEFTITHVLIPKQSAGSDYCNTENEEELFLIQDQQGLITLGWIHTHPTQTAFLSSVDLHTHCSYQMMLPESVAIVCSPKFQETGFFKLTDHGLEEISSCRQKGFHPHSKDPPLFCSCSHVTVVDRAVTITDLR

Variants of: B1
Details: with stam2_human STAM2, O75886

Row | Variant | effect of a mutation on the interaction
1 | K238T | decreasing interaction
2 | K229H | with no effect
